From the DeepSol protein solubility set

Assay: soluble on expression in E. coli; label from the status in PepcDB or PDB records

Sequence | soluble on expression in E. coli
SMEEKLENEPDFQYIPEKAPLDSVHQDDHSLRESMIQLAEGLITGTVLTQFDQLYRKKPGMTMSCAKLPQNISKNRYRDISPYDATRVILKGNEDYINANYINMEIPSSSIINQYIACQGPLPHTCTDFWQMTWEQGSSMVVMLTTQVERGRVKCHQYWPEPTGSSSYGCYQVTCHSEEGNTAYIFRKMTLFNQEKNESRPLTQIQYIAWPDHGVPDDSSDFLDFVCHVRNKRAGKEEPVVVHCSAGIGRTGVLITMETAMCLIECNQPVYPLDIVRTMRDQRAMMIQTPSQYRFVCEAILKVYEEGFVKPLTTSTNKLT | soluble
MAAKNAFYAQSGGVTAVINASAAGVIEAARKQSGKIGRIYAGRNGIIGALTEDLIDTGQESDAAISALRYTPSGAFGSCRYKLKSLEQNRREYERLIEVFKAHDIGYFFYNGGGDSADTCLKVSQLSGTLGYPIQAIHVPKTVDNDLPITDCCPGFGSVAKYIAVSTLEASFDVASMSATSTKVFVLEVMGRHAGWIAAAGGLASSPEREIPVVILFPEISFDKQKFLAKVDSCVKKFGYCSVVVSEGVKGDDGKFLSDQGVRDAFGHAQLGGVAPVVASMVKEGLGLKYHWGVADYLQRAARHIASKTDVEQAYAMGQAAVEFAVQGHNSVMPTIERISARPYQWKVGMAQLSQVANVEKMMPENFITEDGFGITDLCREYLAPLIEGEDYPPYKDGLPDYVRLKNVAVPKKLSGFTL | soluble
MGHHHHHHSHMLINARISVRSYPKYQRFSFFYALLFKRIDLILAQSKEDKKRLLNLGAKKVVDFLNIKRFSKPVITSFYPKNPSALNIVLASTHEGEEELGLKAFLELKKTFKNARLIVVPRHPERFKSVQDLLQNTLKTTPFSWECFSSKGFVECDILLVDSLGELNNFYQIADIVILGGSFVKMGGHNPLEPAFFNARLITGEYIFNQVALFELVKPYKIVPKEDLLDALLDYKNLGMARFLENGHDLNELLAFIKH | not soluble
MGSDKIHHHHHHMLAEERQQMIAHYVDEHQICRVTELCRLTSTSESTIRRDLSEMEDRGLLKRVHGGAQSLQTFGQDVAQQIRFNLNKDDKLAIARLAARKVHPHDYLFLDAGTTIYEMVPFLKEISGLHVVTNGLETALALTDAGIDCCLLGGHVKRQTHAAIGATTVSRLQELNFNAAFIGANALSPAGFLTTPDTEEAAVKRTAIQQSQQAFVLIDRSKFNAVTFAEFAKTDQVTIISRLEAGDREKLPVNIQLEEAE | not soluble
MAHHHHHHMKLEFAHEAIVSRRRLSKFGYSLQTEKWTLHVNKKKRERKRKDSKKREEGEVIITKNANEREIKTVEESKHHTTCRLWFANVAACMYFLALATEELNTILQTEVFSKQRLIYWQMYHMPCSHISCMSARIPPLPPFRLYVTLKPKMRGSIFANISVGRMVGYEAAWSSTYSKRKR | not soluble
MGHHHHHHSHQHLEVRDEVAEKCQKLFLDFLEEFQSSDGEIKYLQLAEELIRPERNTLVVSFVDLEQFNQQLSTTIQEEFYRVYPYLCRALKTFVKDRKEIPLAKDFYVAFQDLPTRHKIRELTSSRIGLLTRISGQVVRTHPVHPELVSGTFLCLDCQTVIRDVEQQFKYTQPNICRNPVCANRRRFLLDTNKSRFVDFQKVRIQETQAELPRGSIPRSLEVILRAEAVESAQAGDKCDFTGTLIVVPDVSKLSTPGARAETNSRVSGVDGYETEGIRGL | not soluble
MAHHHHHHMNTHVISVGSRWVHHEVTQALRQRRGVRVEVNEELQHCDFASRASSVLYCDAHSAEMQRDQASLVLRLQEARQRCGTQPVILMVRMDSDNEVSLERLSWLNLECGVAQQCGLILVWSLDDAVQYLASLAAYAVTSLEFTGAARPYVGDAPLPVLVDALTQTPQVVTRNDVVRIANRKTSVADALMSEASEWEGIAGLDARKRLVCSTSFAHHLCPRSSASTPLYRPPAAAVSLPLIKPQNLISRSQQESPQRGRQRPLASTRP | not soluble
NLNMAVSVTPIRDTKWLTLEVCREFQRGTCSRPDTECKFAHPSKSCQVENGRVIACFDSLKGRCSRENCKYLHPPPHLKTQLEINGRNNLIQQKNMAMLAQQMQLANAMMPGAPLQPVPMFSVAPSLATNASAAAFNPYLGPVSPSLVPAEILPTAPMLVTGNPGVPVPAAAAAAAQKLMRTDRLEVCREYQRGNCNRGENDCRFAHPADSTMIDTNDNTVTVCMDYIKGRCSREKCKYFHPPAHLQAKIKAAQYQVNQAAAAQAAATAAAMGIPQAVLPPLPKRPALEKTNGATAVFNTGIFQYQQALANMQLQQHTAFLPPVPMVHGATPATVSAATTSATSVPFAATATANQIPIISAEHLTSHKYVTQM | soluble
MSLSDLSAFAVTQKWPAQFPEWIQLYSLPTPNGVKVSVMLEEIGLPYEAHRVSFETQDQMTPEFLSVSPNNKIPAILDPHGPGDQPLALFESGAILIYLADKSGQLLAQESAARYETIQWLMFQMGGIGPMFGQVGFFNKFAGREYEDKRPLERYVNEAKRLLGVLDKHLGGREWIMGERYTIADIATFPWIRNLIGFYEAGELVGIDNFPEVKRVLAKFVARPAVIRGLEIPKVSEGHHHHHH | soluble
MNRLSIFVDGNNMFYAQQKNGWFFDPRRVLEYFKHEQSETTLINAFWYTGLKDPQDQRGFRDALISLGYTVRTKILKEYYDDTSGRYSQKANLDIEIVVDMFNTVDQYDRVVLFSGDGDFERAIELLRSKNTHITVVSTEGMIARELRNATDRYIDLNDIRDQIEKT | not soluble
MGSDKIHHHHHHADGNDPVENSVSTYLLEKTYGARSVTYEENNSDKLKLSELPAISLSEADHILSVLRKHTDAQEELDIQTATKGEQTWLRIVMKQTIDHKYAFTIQLNMNCYNDGSLYYGGYQAECSSSLIKWYLKGFSLATDNATKNYKFESQSYIYMKVIDNGIKYMQIPVTINGNYNPQNHDAAFSYNL | not soluble
MGHHHHHHSHMAIPITVLDCDLLLYGRGHRTLDRFKLDDVTDEYLMSMYGFPRQFIYYLVELLGANLSRPTQRSRAISPETQVLAALGFYTSGSFQTRMGDAIGISQASMSRCVANVTEALVERASQFIRFPADEASIQALKDEFYGLAGMPGVMGVVDCIHVAIKAPNAEDLSYVNRKGLHSLNCLMVCDIRGTLMTVETNWPGSLQDCAVLQQSSLSSQFEAGMHKDSWLLGDSSFFLRTWLMTPLHIPETPAEYRYNMAHSATHSVIEKTFRTLCSRFRCLDGSKGALQYSPEKSSHIILACCVLHNISLEHGMDVWSSPMTGPMEQPPEEEYEHMESLDLEADRIRQELMLTHFS | not soluble
MKAKDVKLLARYLEMLKDPNIIKTQDVFTVIRYISYNSYGKTMAWNWIQLNWDYLVSRFTINDRYLGRIVTIAEPFNTELQLWQMQSFFAKYPNAGAGAKPREQVLETVKNNIEWLNVNRQSIREWFASLP | not soluble
MICARIRPLISSPLAFTISTTKHSRINLRLLPRRSFSVMSSSTPQSQIIEHIVLFKTKDDADSTKITSMINNLNALAYLDQVLHISTSPLHRISSATAFTHVLHSRYESKEDLASYAAHPDHVRVVKESVLPICDDIMAVDWIADRIPGTVAPLPGSVAKLTLLKLKEDVADEAKSEITGVIKGLSEKFPGIDQITVGENFSPARAKGFSIASIAYFKDLSEMEAVDAQKELVNSQKDKVRDYVDSTIVVEFVVPSSSQSSSL | soluble
MFDRSRKGEYALLIQPLTDHSAEDGALEEFADLTRSAGATVAGSLAVRIHRPNPSTLLSSGKLKEIKETADATGADLILINHSLSPVQERNLEKSLERRVIDRTGLILDIFAQRACSHEGKLQVELAQLRHLATRLVRGWTHLERQRGGAIGLRGPGETQLETDRRLLQKRVEQLQKRLSKVEVQRTQMRRARVRSEVPRIALVGYTNSGKSTLFNALTGASAYTANQLFATLDPKVRRIVLPGSSAMLADTVGFVRHLPHELVAAFRSTLSEAREADLLLHVIDAADPLREERIDQVDEVLQAIGAGELPQLLVFNKIDCIEGAEVRQDAQDGIPDQARRERVWLSARHGHGVELLQQILNHRLKIQNVQSELRLPPSEGRLRARLHELKGVREEQTDEHGWLLKIDLSLAEIERLAASDYGIPLRALLQDHRDAWTPTLHSKYVSAEYLEHHHHHH | not soluble
MTEADDPKKKIRARIERDVYSVLLSFQEGATPNQVERRMDDTLGYTYVGKYVQAGVRDMAQLLREHKDVRQNLSGVFSVVANEDNQDLINLISKQKKKKKGGKGAKPIRAATSMGFHNKSGFGYAAHLRSPKPSFMYPASSARANPAKPQATGYRNTVRHPPVRPSTATGHSSFANRSAYSHHTTRSTTVGPVKIAPSATAQRPLLRQPVTVVQRLSSTVAVPVLQPGIDSKCMPSIVDFSNNVKRMMLLEYPADVHLSELTEIYDKHFDVSIDPLQLFSKSWMMFVKTSFKEWLQLGTDGRVEVKEPWFTNFGAALKKSMPPAPEKKKPTTLHEPTSSVASSSLPISQGFRYQIPVVRPIVSVAESMKGLTVSARSVMGTPKDLPGVSNPIKNTARGSNKPRNDLASSKASKDLVVPVMKTTCIKSLEDTSTSSSNPSTLQLSTASTSATDQKLPKMSFGRQIEKGSSIPGRHISLALTEIKNQKVIAASIVGKSAKTSTKVPSTTRSVVLPPMSKGPGLARSRNFSPQQSTTSSIDNECLEAINAALPSDKDSW | soluble
ESIQRPTPINQVFPDPGLANAVKQNLGKQSVTDLVSQKELSGVQNFNGDNSNIQSLAGMQFFTNLKELHLSHNQISDLSPLKDLTKLEELSVNRNRLKNLNGIPSACLSRLFLDNNELRDTDSLIHLKNLEILSIRNNKLKSIVMLGFLSKLEVLDLHGNEITNTGGLTRLKKVNWIDLTGQKCVNEPVKYQPELYITNTVKDPDGRWISPYYISNGGSYVDGCVLWELPVYTDEVSYKFSEYINVGETEAIFDGTVTQPIKN | soluble
MAHHHHHHMGTYFSKDLQECLREEKRNLNRSIRELEREIFKMENEKKQIEKNIRIHAKKNDITLVRTLAKDLVKIKQNVIKYNKIKSHLLSMKIKLQSVKSSEQLNKSLCDINNIIKRVNKYIQVKNINNSIYEFQKQNNEVSIKEDMIDDLFDTLNYDIDMIQEEDEIVSKVLDELGIQLNSKLEQIPTIKQTENEQLDNVNISKIEDRINNLKKM | soluble
MQRQEQLKKWLAEQYPGDEIQLEFAAADADFRRYFRAIWPDGASRIVMDAPPEHIGTDAYVKVRDIFSMVKVPEIYLRDRDQGFIVMEDLGKVTYLAALQHDERPFVHRHLLLEALDTLVDIQKASQPEVLPEYDETLLTRELNLFPEWFCAKELGKPLNFKQRQLWDAGVQALLPALLTQPKVFVHRDFIVRNLMLTPGTPGVLDFQDAVYGPISYDAVSLLRDAFIEWDEEFVLDLAIRYWEKARAAGLPVPEAFDDFYRAFEWMGVQRHLKVAGIFARLYHRDGKDKYLAEIPRFIKYLKRTTRRYAELAPFYQLLVDLVGRDATDEELQSSYPVLGVKGHLEHHHHHH | not soluble
MNRTAMRASQKDFENSMNQVKLLKKDPGNEVKLKLYALYKQATEGPCNMPKPGVFDLINKAKWDAWNALGSLPKEAARQNYVDLVSSLSPSLESSSQVEPGTDRKSTGFETLVVTSEDGITKIMFNRPKKKNAINTEMYHEIMRALKAASKDDSIITVLTGNGDYYSSGNDLTNFTDIPPGGVEEKAKNNAVLLREFVGCFIDFPKPLIAVVNGPAVGISVTLLGLFDAVYASDRATFHTPFSHLGQSPEGCSSYTFPKIMSPAKATEMLIFGKKLTAGEACAQGLVTEVFPDSTFQKEVWTRLKAFAKLPPNALRISKEVIRKREREKLHAVNAEECNVLQGRWLSDECTNAVVNFLSRKSKL | not soluble
